Assay results: paper PMC11550485 (Science (New York, N.Y.), 2023)

Biological target: 6×His-GFP-tau (human, UniProt P10636-8 1-441)
Experiment: pull-down

B1: GST-TRIM11 (natural protein, human, UniProt Q96F44 1-468, looked up)
chain: MAAPDLSTNLQEEATCAICLDYFTDPVMTDCGHNFCRECIRRCWGQPEGPYACPECRELSPQRNLRPNRPLAKMAEMARRLHPPSPVPQGVCPAHREPLAAFCGDELRLLCAACERSGEHWAHRVRPLQDAAEDLKAKLEKSLEHLRKQMQDALLFQAQADETCVLWQKMVESQRQNVLGEFERLRRLLAEEEQQLLQRLEEEELEVLPRLREGAAHLGQQSAHLAELIAELEGRCQLPALGLLQDIKDALRRVQDVKLQPPEVVPMELRTVCRVPGLVETLRRFRGDVTLDPDTANPELILSEDRRSVQRGDLRQALPDSPERFDPGPCVLGQERFTSGRHYWEVEVGDRTSWALGVCRENVNRKEKGELSAGNGFWILVFLGSYYNSSERALAPLRDPPRRVGIFLDYEAGHLSFYSATDGSLLFIFPEIPFSGTLRPLFSPLSSSPTPMTICRPKGGSGDTLAPQ
- binding result: binds
